Assay [1] has as its target T1, 018 minimal fragment (peptide 1) 11-30 (Vaccinia virus), P17356. Nature of the assay: competition.
Assay [2] concerns the target T1, 018 minimal fragment (peptide 1) 11-30 …. Nature of the assay: ITC. On the technique in general: Isothermal titration calorimetry measures the heat released or taken up as one component is titrated into another.
Assay [3] has the same target.

Like-named read-outs stand apart in the source and are kept apart here.

T1 sequence (P17356 11-30): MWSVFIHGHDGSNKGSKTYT

B1: STAT1, P42224 (protein)
chain: SQWYELQQLDSKFLEQVHQLYDDSFPMEIRQYLAQWLEKQDWEHAANDVSFATIRFHDLLSQLDDQYSRFSLENNFLLQHNIRKSKRNLQDNFQEDPIQMSMIIYSCLKEERKILENAQRFNQAQSGNIQSTVMLDKQKELDSKVRNVKDKVMCIEHEIKSLEDLQDEYDFKCKTLQNREHETNGVAKSDQKQEQLLLKKMYLMLDNKRKEVVHKIIELLNVTELTQNALINDELVEWKRRQQSACIGGPPNACLDQLQNWFTIVAESLQQVRQQLKKLEELEQKYTYEHDPITKNKQVLWDRTFSLFQQLIQSSFVVERQPCMPTHPQRPLVLKTGVQFTVKLRLLVKLQELNYNLKVKVLFDKDVNERNTVKGFRKFNILGTHTKVMNMEESTNGSLAAEFRHLQLKEQKNAGTRTNEGPLIVTEELHSLSFETQLCQPGLVIDLETTSLPVVVISNVSQLPSGWASILWYNMLVAEPRNLSFFLTPPCARWAQLSEVLSWQFSSVTKRGLNVDQLNMLGEKLLGPNASPDGLIPWTRFCKENINDKNFPFWLWIESILELIKKHLLPLWNDGCIMGFISKERERALLKDQQPGTFLLRFSESSREGAITFTWVERSQNGGEPDFHAVEPYTKKELSAVTFPDIIRNYKVMAAENIPENPLKYLYPNIDKDHAFGKYYSRPKEAPEPMELDGPKGTGYIKTELISVSEVHPSRLQTTDNLLPMSPEEFDEVSRIVGSVEFDSMMNTV
What is called IC50 is the point on the concentration scale where inhibition reaches its midpoint. In general, Kd refers to the constant that tells how readily two partners part at equilibrium. The low end stands for higher affinity, the high end for lower affinity. B1: the IC50 in assay [1] worked out at 4300 nM. The results for the Kd in assay [2] and in assay [3] were 533 nM and 73 nM, respectively.

For the origin of these results see article PMC12813973, “Consequences of Peptide Macrocyclization Revealed by Virus-Inspired β‑Hairpin Mimetics” (ACS Chemical Biology, 2025).
